One block for each substance: values may come before it.
How the values were obtained:
[1] = biological target: Ef-SOD1a^Δ (Euplotes focardii Cu,Zn superoxide dismutase 1a without its signal peptide) (Euplotes focardii); test: SEC; comparison of the SEC chromatographic profiles of Ef-SOD1a and Ef-SOD1b; data not shown
[2] = biological target: Ef-SOD1b (Euplotes focardii Cu,Zn superoxide dismutase 1b) (Euplotes focardii); test: SEC-MALS; 200 µl of protein (1 mg/ml) on Superose12 10/300 GL; 50 mM sodium phosphate buffer, NaCl 150 mM, pH 7.5
[3] = biological target: Ef-SOD2^Δ (Euplotes focardii Mn superoxide dismutase without its mitochondrial signal peptide) (Euplotes focardii); test: as above

- stoichiometry N [1]: 2
Substance: Ef-SOD1a^Δ (Euplotes focardii Cu,Zn superoxide dismutase 1a without its signal peptide) (enzyme)

- stoichiometry N [2]: 2
Substance: Ef-SOD1b (Euplotes focardii Cu,Zn superoxide dismutase 1b) (enzyme)

- stoichiometry N [3]: 4
Substance: Ef-SOD2^Δ (Euplotes focardii Mn superoxide dismutase without its mitochondrial signal peptide) (enzyme)

Reference: paper PMC6170424
